The results in this text go back to article PMC10686819.

“And” between values parts separate entries of the source, which are not always exact repeats. Identical values can stand only once. Like-named read-outs stand apart in the source and are kept apart here.

Holding throughout (assay): cryo-EM structure
Experiment [1] concerns the target BG505 HT1 soluble Env heterotrimer (two BG505-D368R SOSIP.664 protomers, one D7324-tagged BG505 SOSIP.664 protomer) (HIV-1 (clade A, BG505)).
In experiment [2] the target is BG505 HT2 soluble Env heterotrimer (two BG505 SOSIP.664 protomers, one D7324-tagged BG505-D368R SOSIP.664 protomer) (HIV-1 (clade A, BG505)).
Experiment [3] deals with BG505 HT1 soluble Env heterotrimer (two BG505-D368R SOSIP.664 protomers, one D7324-tagged BG505 SOSIP.664 protomer) (HIV-1 (clade A, BG505)). The source holds these as a separate data set.
In experiment [4] the target is BG505 HT2 soluble Env heterotrimer (two BG505 SOSIP.664 protomers, one D7324-tagged BG505-D368R SOSIP.664 protomer) (HIV-1 (clade A, BG505)). The source holds these as a separate data set.
The target in experiment [5] is B41 HT2 soluble Env heterotrimer (two B41 SOSIP.664 protomers, one D7324-tagged B41-D368R SOSIP.664 protomer) (HIV-1 (clade B, B41)).

On to “CD4 D1-D4 (domains 1-4), soluble (receptor)”, for which the stoichiometry N – broadly, the number of molecules, sites or subunits per partner or assembly – was 1 in experiment [1]; 2 and 1 in experiment [2]; 3 in experiment [3]; 3 in experiment [4].

The substance “CD4 (as used in the cryo-EM complex with B41 HT2; version not stated) (from UniProt P01730 26-396) (receptor)” yielded a stoichiometry N in experiment [5] of 2.
